Experimental data reported in publication PMC3765780, “Pyocyanin-induced mucin production is associated with redox modification of FOXA2”.

Molecular target: T1, FOXA2 (immunoprecipitated from control NCI-H292 cells) (Homo sapiens? (NCI-H292 cells), UniProt Q9Y261 1-457)
T1 sequence: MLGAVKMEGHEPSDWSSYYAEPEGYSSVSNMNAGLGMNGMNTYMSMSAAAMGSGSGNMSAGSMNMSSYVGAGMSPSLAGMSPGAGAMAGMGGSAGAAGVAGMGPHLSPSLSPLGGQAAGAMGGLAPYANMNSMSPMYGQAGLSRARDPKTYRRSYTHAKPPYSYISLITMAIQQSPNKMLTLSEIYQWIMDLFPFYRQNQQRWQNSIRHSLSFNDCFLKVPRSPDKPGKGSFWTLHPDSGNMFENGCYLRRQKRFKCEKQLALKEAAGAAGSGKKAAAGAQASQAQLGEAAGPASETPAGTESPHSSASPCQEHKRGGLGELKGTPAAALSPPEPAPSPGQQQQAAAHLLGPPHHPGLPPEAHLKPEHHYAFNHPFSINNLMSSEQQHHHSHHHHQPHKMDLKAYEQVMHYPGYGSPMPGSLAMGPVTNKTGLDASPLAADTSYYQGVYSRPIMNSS
Test: EMSA; untreated control cells; inhibited by 20-fold unlabeled probe and by anti-FOXA2 antibody; 10 mM Hepes pH 7.9, 1 mM EDTA, 5 mM MgCl2, 10% glycerol, DTT (printed '0.5 m MDTT', probably 0.5 mM), 1 mg/ml BSA, 1 ug poly(dI-dC); 2.5 ug FOXA2; 20 min, room
Details: protein: native; blunt

B1: MUC5B promoter FOXA2 site probe (dsDNA)
DNA 1: CCTCCCCGAGAGCAAACACACGTGGCTGGA
DNA 2: TCCAGCCACGTGTGTTTGCTCTCGGGGAGG
  binding result: binds
